Measured values: the supplement of paper PMC10126150
± gives the standard deviation of the averaged measurements.

tested on: ATP; assay: switch fluorescence ratio, 500 uM ATP over buffer (Cy3 cluster intensity, sum of 5 cycles each) (fold (ratio)); higher = stronger signal-on switching upon ATP binding; sequences stand for … in TCGTCGGCAGCGTCAGATGTGTATAAGAGACAGTTTTTTTTTTTTTTTTTTTTTTTTT…TC; details: aptamer strand: ATP DNA aptamer (quencher-CACCTGGGGGAGTATTGCGGAGGAAGG + anchor), 100 nM annealed; ATP concentration: 500 uM
Method in brief: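 The fluorescence ratio divides summed target-cycle Cy3 intensity by summed buffer-cycle Cy3 intensity for each cluster and is averaged per switch-domain sequence. Cy3-labelled switching-strand clusters on a modified Illumina MiSeq flow-cell were annealed to 100 nM quencher-labelled ATP aptamer, then imaged in selection buffer and again after 15 min with 500 uM ATP at 22 °C. Five such cycles were run, with NaOH stripping and re-annealing between them, and clusters outside 100-1000 RFU were excluded.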
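Also: ATP exposure 15 min at 22 °C before imaging.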

| Sequence | switch fluorescence ratio |
| --- | --- |
| TGAATGAGTT | 1.02 ± 0.03 |
| TGAATGATC | 1 ± 0.043 |
| TGAATGGGCA | 0.973 ± 0.024 |
| TGAATGTTGG | 0.988 ± 0.025 |
| TGAATTATTT | 1.02 ± 0.035 |
| TGAATTGGGG | 1.06 ± 0.084 |
| TGAATTTTTA | 1 ± 0.011 |
| TGAATTTTTT | 0.993 ± 0.028 |
| TGACAGTATC | 1.08 ± 0.011 |
| TGACAGTGGG | 0.959 ± 0.04 |
| TGACATAGGA | 1.001 ± 0.0029 |
| TGACATCGGG | 1.01 ± 0.033 |
| TGACCATTGC | 1.093 ± 0.0059 |
| TGACCCTTTT | 1 ± 0.077 |
| TGACCGGAGT | 1.03 ± 0.033 |
| TGACCTGAGA | 1.04 ± 0.021 |
| TGACCTGGCT | 1.04 ± 0.035 |
| TGACGAAGGG | 0.987 ± 0.023 |
| TGACGATAGG | 0.995 ± 0.013 |
| TGACGGGGCG | 1.03 ± 0.05 |
| TGACGGGGGG | 1.06 ± 0.12 |
| TGACGGGGGT | 0.989 ± 0.028 |
| TGACGGGGTG | 1.01 ± 0.044 |
| TGACGGTGGG | 0.962 ± 0.023 |
| TGACGTAAGG | 0.994 ± 0.026 |

| Sequence | switch fluorescence ratio |
| --- | --- |
| TGACTGAAGG | 0.9503 ± 0.0065 |
| TGACTGTATT | 1.14 ± 0.042 |
| TGACTTTGAT | 0.95 ± 0.013 |
| TGAGAAAATT | 1.017 ± 0.0034 |
| TGAGAGACGG | 0.968 ± 0.063 |
| TGAGAGGATC | 1.018 ± 0.0025 |
| TGAGAGGCGT | 1.022 ± 0.0098 |
| TGAGATAAAG | 0.967 ± 0.001 |
| TGAGATAGCT | 0.998 ± 0.033 |
| TGAGATGCGG | 1.03 ± 0.038 |
| TGAGATGGTT | 1.01 ± 0.029 |
| TGAGATTCTG | 1.05 ± 0.043 |
| TGAGCACCGT | 1 ± 0.017 |
| TGAGCACGGG | 1.03 ± 0.02 |
| TGAGCCTGCT | 0.98 ± 0.012 |
| TGAGCGGTCA | 0.99 ± 0.015 |
| TGAGCTAGCT | 1.01 ± 0.033 |
| TGAGCTGAGG | 0.957 ± 0.049 |
| TGAGCTGGGG | 0.996 ± 0.02 |
| TGAGGATTTT | 1.05 ± 0.1 |
| TGAGGCATGT | 1.05 ± 0.036 |
| TGAGGCGGGG | 0.9642 ± 0.0059 |
| TGAGGGAGCA | 1.01 ± 0.11 |
| TGAGGGAGTG | 0.996 ± 0.021 |
| TGAGGGCATT | 1 ± 0.012 |

| Sequence | switch fluorescence ratio |
| --- | --- |
| TGAGGGGCGC | 0.988 ± 0.028 |
| TGAGGGGTGA | 1.01 ± 0.029 |
| TGAGGGTTTA | 0.991 ± 0.017 |
| TGAGGTATCT | 1.007 ± 0.0091 |
| TGAGGTGCGG | 0.996 ± 0.024 |
| TGAGGTTAAC | 0.957 ± 0.023 |
| TGAGGTTCGA | 0.98 ± 0.03 |
| TGAGTGAGTG | 0.9933 ± 0.0015 |
| TGAGTGGCTT | 0.967 ± 0.034 |
| TGAGTGGGGA | 1 ± 0.013 |
| TGAGTGGGGT | 1.02 ± 0.031 |
| TGAGTTAGGG | 0.985 ± 0.017 |
| TGAGTTTCCA | 0.958 ± 0.011 |
| TGAGTTTCTG | 0.968 ± 0.014 |
| TGAGTTTTAC | 1.04 ± 0.03 |
| TGATAACCGC | 1.1 ± 0.039 |
| TGATAAGAGT | 1.01 ± 0.011 |
| TGATAAGTG | 0.9877 ± 0.0016 |
| TGATAATGTT | 0.997 ± 0.014 |
| TGATAGAGGA | 0.988 ± 0.059 |
| TGATAGGGTC | 1.06 ± 0.11 |
| TGATAGTGAT | 0.988 ± 0.024 |
| TGATAGTTGA | 1.005 ± 0.0026 |
| TGATATAGCA | 1.03 ± 0.013 |
| TGATATCCGA | 1.04 ± 0.013 |

| Sequence | switch fluorescence ratio |
| --- | --- |
| TGATATTGG | 0.971 ± 0.045 |
| TGATATTTCT | 1 ± 0.011 |
| TGATCAAATG | 0.989 ± 0.023 |
| TGATCACACG | 1.024 ± 0.01 |
| TGATCAGGGG | 1.03 ± 0.021 |
| TGATCCTTGG | 1.03 ± 0.031 |
| TGATCGTCGG | 1.02 ± 0.013 |
| TGATCTAGGC | 0.98 ± 0.074 |
| TGATCTTTCT | 1.01 ± 0.059 |
| TGATGACCAT | 1.006 ± 0.0079 |
| TGATGATGAC | 1.01 ± 0.0038 |
| TGATGATGAG | 0.996 ± 0.013 |
| TGATGATTTC | 1.009 ± 0.009 |
| TGATGGCATT | 0.9893 ± 0.0071 |
| TGATGGCCCG | 1.03 ± 0.092 |
| TGATGGCGTT | 1 ± 0.031 |
| TGATGGGGCT | 0.975 ± 0.038 |
| TGATGGGTAT | 1 ± 0.028 |
| TGATGGGTTG | 1 ± 0.03 |
| TGATGTTAGC | 1.03 ± 0.036 |
| TGATGTTGTC | 0.988 ± 0.033 |
| TGATTAATGT | 0.9996 ± 0.0099 |
| TGATTAGTCG | 1.01 ± 0.023 |
| TGATTATTGG | 1 ± 0.061 |
| TGATTCAGGG | 1.028 ± 0.0081 |
